Experimental data from patent publication US20260116991A1 (HAINAN SIMCERE ZAIMING PHARMACEUTICAL, published 2026).
Residue numbers refer to the chain shown, from its start. Values belong to the binder of their own block, whether it stands above or below them.

Tests used:
[1] = biological target: T1, polypeptide GC3pep (human); assay: ELISA, GC3pep coated, antibody 1 nM;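 further: bound antibody detected with an HRP-conjugated secondary antibody and TMB substrate, reaction stopped with HCl, after 2 h binding at 37 °C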
T1 construct: also called membrane proximal polypeptide GC3pep
T1 peptide: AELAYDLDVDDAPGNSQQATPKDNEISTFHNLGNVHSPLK

[2] = biological target: T1, polypeptide GC3pep; assay: ELISA, GC3pep coated, antibody 10 nM;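 further: antibody bound to the coated peptide for 2 h at 37 °C, detected through an HRP-conjugated secondary antibody with TMB colour development stopped by acid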
[3] = biological target: T1, polypeptide GC3pep; assay: ELISA, GC3pep coated, antibody 0.1 nM;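 further: antibody allowed to bind the coated plate 2 h at 37 °C, then detected via HRP-conjugated secondary antibody and TMB development for 10 min, stopped with HCl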
[4] = biological target: T1, polypeptide GC3pep; assay: ELISA, GC3pep coated, antibody 100 nM;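 further: detection with an HRP-conjugated secondary antibody and TMB substrate, color reaction stopped with HCl before absorbance reading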
[5] = biological target: T1, polypeptide GC3pep; assay: ELISA, GC3pep coated, antibody 0.01 nM;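 further: bound antibody detected with an HRP-conjugated secondary antibody and TMB substrate, color reaction stopped with HCl before reading absorbance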
[6] = biological target: T1, polypeptide GC3pep; assay: ELISA, GC3pep coated, antibody 0.001 nM
[7] = biological target: T1, polypeptide GC3pep; assay: ELISA, GC3pep coated, antibody 0.0001 nM
[8] = biological target: T2, murine GPC3-His protein (Sino Biological, Cat. No. 50989-M08B) (murine, UniProt Q8CFZ4 25-558); assay: ELISA, coated antigen
T2 construct: Bought protein; also called murine GPC3 protein; mouse GPC3-his protein; not shown: His tag
T2 sequence (Q8CFZ4 25-558 limits assumed): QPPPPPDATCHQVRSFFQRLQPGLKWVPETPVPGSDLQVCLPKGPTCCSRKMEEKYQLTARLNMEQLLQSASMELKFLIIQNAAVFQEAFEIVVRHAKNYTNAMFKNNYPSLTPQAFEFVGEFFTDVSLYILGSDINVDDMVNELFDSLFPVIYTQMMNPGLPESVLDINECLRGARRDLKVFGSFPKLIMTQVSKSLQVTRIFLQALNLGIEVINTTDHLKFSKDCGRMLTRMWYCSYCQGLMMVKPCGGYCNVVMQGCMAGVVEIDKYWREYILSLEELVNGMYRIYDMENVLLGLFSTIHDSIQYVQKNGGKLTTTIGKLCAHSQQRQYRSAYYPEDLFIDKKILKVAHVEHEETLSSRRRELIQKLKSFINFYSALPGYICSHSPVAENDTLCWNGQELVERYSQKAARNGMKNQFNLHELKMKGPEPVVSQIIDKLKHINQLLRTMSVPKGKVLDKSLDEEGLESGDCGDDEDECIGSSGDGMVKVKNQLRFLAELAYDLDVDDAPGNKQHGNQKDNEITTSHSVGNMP

- OD450 nm [1]: 0.03 OD450 nm
- OD450 nm [2]: 0.03 OD450 nm
- OD450 nm [3]: 0.03 OD450 nm
- OD450 nm [4]: 0.06 OD450 nm
- OD450 nm [5]: 0.04 OD450 nm
- OD450 nm [6]: 0.04 OD450 nm
- OD450 nm [7]: 0.04 OD450 nm
B1: F4.18.4 (antibody, human IgG1, kappa, V domains shown)
VH: QVQLHQSGAEMAKPGASVNLSCKTSGFTFTDYGISWVKQRTRQGLEWIGDIYPRHINIYYNEKFKDKATLTADRSSSTAYMELRSMTSEDSAVYFCARRGTTGRGALDYWGQGTSLTVSS
VL: DILLTQSPAILSVSPGERVSFSCRASQSIGTSIHWYQQRTNGSPRLLIKYAFESISGIPSRFGGSGSRTDFTLTINSVESEDIADYYCQQTYNWPYTFGGGTKLEIKR
notes: human-murine chimeric antibody

- OD450 nm [1]: 0.03 OD450 nm
- OD450 nm [2]: 0.04 OD450 nm
- OD450 nm [3]: 0.03 OD450 nm
- OD450 nm [4]: 0.06 OD450 nm
- OD450 nm [5]: 0.04 OD450 nm
- OD450 nm [6]: 0.08 OD450 nm
- OD450 nm [7]: 0.05 OD450 nm
B2: F4.13.7 (antibody, human IgG1, kappa, V domains shown)
VH: QVQLQQPGAELVKPGASVKLSCKASGYTFTNNWVHWVKQRPGQGLEWTGMIHPDSGSTIYNEKFQSKATLTVDKSSSTAYMQLSSLTSEDSAVYYCARGYYDSSSYYAMDYWGQGTSVTVSS
VL: NIQMTQTTSSLSASLGDRVTISCSASQGIFNYLNWYQQKPDGTVKLLIYYTSSLHSGVPSRFSGSGSGTDYSLTISNLEPEDIATYYCQQYSKLPWTFGGGTKLEIKR
notes: as for B1

- binding result [8]: no binding
B3: hAb005LH3L1b (antibody, human IgG1, V domains shown)
VH: EVQLVQSGAEVKKPGASVKVSCKASGYTFTDYEMHWVRQAPGQGLEWIGAIDPETGNTAYIQKFKGRATLTTDKSTSTAYMELRSLRSDDTAVYYCTRFYSYSHWGQGTTVTVSS
VL: DIVMTQTPLSLPVTPGEPASISCRSSQSLVHSNRNTYLHWYLQKPGQSPQLLIYKVSNRFSGVPDRFSGSGSGTDFTLKISRVEAEDVGVYYCSQNTHVPPTFGGGTKVEIK
notes: Humanized F3.54.12

- binding result [8]: no binding
B4: hAb007LH2L1 (antibody, human IgG1, V domains shown)
VH: EVQLVQSGAEVKKPGSSVKVSCKASGYTFTDYEMHWVRQAPGQGLEWMGTIDPETGNTAYNQKFKGRVTITADKSTSTAYMELSSLRSEDTAVYYCTRPYSLTYWGQGTLVTVSS
VL: B3 VL with L29F, R34G, N35D, H39Q, S94F, N96G, T97S, P101Y, G105Q, V109L
notes: Humanized F3.81.19

- binding result [8]: no binding
B5: hAb006LH1L1 (antibody, human IgG1, V domains shown)
VH: B4 VH with T30S, M34I, T50A, E54K, K65M, P99Y, Y100F, L102F, T103A
VL: B3 VL with S28T, L29F, R34G, H39Q, S94F, N96G, T97S, P101Y, G105Q, V109L
notes: Humanized F3.38.7

- binding result [8]: no binding
B6: hAb006LH1L1a (antibody, human IgG1, V domains shown)
VH: B4 VH with T30S, M34I, T50A, E54K, K65M, P99Y, Y100F, L102F, T103A
VL: DIVMTQTPLSLPVTPGEPASISCRSSQTFVHSDGNTYLQWYLQKPGQSPQLLIYKVSNRFSGVPDRFSGSGSGTDFTLKISRVEAEDVGVYYCFQGSHVPYTFGQGTKLEIK
notes: Humanized F3.38.7

- binding result [8]: no binding
B7: hAb006LH1L1b (antibody, human IgG1, V domains shown)
VH: B4 VH with T30S, M34I, T50A, E54K, K65M, P99Y, Y100F, L102F, T103A
VL: B6 VL with D33N, G34A
notes: Humanized F3.38.7

- binding result [8]: no binding
B8: hAb006LH3L1a (antibody, human IgG1, V domains shown)
VH: B4 VH with M34I, T50A, E54K, K65M, I70L, P99Y, Y100F, L102F, T103A
VL: B6 VL
notes: Humanized F3.38.7

- binding result [8]: no binding
B9: hAb006LH3L1d (antibody, human IgG1, V domains shown)
VH: B4 VH with M34I, T50A, E54K, K65M, I70L, P99Y, Y100F, L102F, T103A
VL: B6 VL with D33N, G34S
notes: Humanized F3.38.7

- binding result [8]: no binding
B10: hAb007LH1L1b (antibody, human IgG1, V domains shown)
VH: B4 VH with T30S
VL: B6 VL with T28S, D33N, G34R, N35D
notes: Humanized F3.81.19

- binding result [8]: no binding
B11: hAb006LH2L1 (antibody, human IgG1, V domains shown)
VH: B4 VH with M34I, T50A, E54K, K65M, P99Y, Y100F, L102F, T103A
VL: B6 VL with D33N
notes: Humanized F3.38.7

- binding result [8]: no binding
B12: hAb007LH1L1a (antibody, human IgG1, V domains shown)
VH: B4 VH with T30S
VL: B6 VL with T28S, N35D
notes: Humanized F3.81.19

- binding result [8]: no binding
B13: hAb006LH2L1b (antibody, human IgG1, V domains shown)
VH: B4 VH with M34I, T50A, E54K, K65M, P99Y, Y100F, L102F, T103A
VL: B6 VL with D33N, G34A
notes: Humanized F3.38.7

- binding result [8]: no binding
B14: hAb006LH3L1e (antibody, human IgG1, V domains shown)
VH: B4 VH with M34I, T50A, E54K, K65M, I70L, P99Y, Y100F, L102F, T103A
VL: B6 VL with D33N, G34V
notes: Humanized F3.38.7

- binding result [8]: no binding
B15: hAb007LH1L1 (antibody, human IgG1, V domains shown)
VH: B4 VH with T30S
VL: B6 VL with T28S, D33N, N35D
notes: Humanized F3.81.19

- binding result [8]: no binding
B16: hAb006LH2L1a (antibody, human IgG1, V domains shown)
VH: B4 VH with M34I, T50A, E54K, K65M, P99Y, Y100F, L102F, T103A
VL: B6 VL
notes: Humanized F3.38.7

- OD450 nm [1]: 0.03 OD450 nm
- OD450 nm [2]: 0.04 OD450 nm
- OD450 nm [3]: 0.03 OD450 nm
- OD450 nm [4]: 0.08 OD450 nm
- OD450 nm [5]: 0.04 OD450 nm
- OD450 nm [6]: 0.04 OD450 nm
- OD450 nm [7]: 0.04 OD450 nm
B17: F4.21.16 (antibody, human IgG1, kappa, V domains shown)
VH: DVQLQESGPGLVKPSQSLSLTCSVTGYSITSGYYWNWIRQFPGNKLEWMGYISYDVTVNYNPSLKNRISITRDTSKNQFFLKLNSVTTEDTATYYCATITSVASMDHWGQGTSVTVSS
VL: DILMTQTPLSLPVSLGDQASISCRSSQNIVHRNGNTYLEWYLQKPGQSPKLLLYKVSNRFSGVPDRFSGSGSGTDFTLKISRVEAEDLGIYYCFQGSHFPFTFGSGTKLEIKR
notes: as for B1

- OD450 nm [1]: 2.64 OD450 nm
- OD450 nm [2]: 2.8 OD450 nm
- OD450 nm [3]: 1.63 OD450 nm
- OD450 nm [4]: 3.03 OD450 nm
- OD450 nm [5]: 0.33 OD450 nm
- OD450 nm [6]: 0.09 OD450 nm
- OD450 nm [7]: 0.07 OD450 nm
B18: F3.54.12 (antibody, human IgG1, kappa, V domains shown)
VH: QVQLQQSGAELVRPGASVKLSCKASGYTFTDYEMHWVKQTPVHGLEWIGAIDPETGNTAYIQKFKGKATLTTDKSSSTAYMELRSLTSEDSAVYYCTRFYSYSHWGQGTTLTVSS
VL: DVVMTQTPLSLPVSLGDQASISCRSSQSLVHSNGNTYLHWYLQKPGQSPKLLIYKVSNRFSGVPDRFSGSSSGTDFTLKISRVEAEDLGVYFCSQNTHVPPTFGGGTKLEIKR
notes: as for B1

- binding result [8]: no binding (tested: 100 nM)
B19: F2.23.8 human-murine chimeric antibody (antibody, human IgG1, kappa, V domains shown)
VH: QVQLQQSGAELVRPGASVKLSCKASGYTFTDYEMHWVKQTPVHGLEWFGAIDPETGGTAYNQKFRAKATLTADKSSSTAYMELRSLTSEDSAVYYCTRFYSFAYWGQGTLVTVSA
VL: B18 VL with H39Q, S71G, S81T, N96S, P101Y, G105S
notes: Chimeric

- binding result [8]: no binding (tested: 100 nM)
B20: F2.39.2 human-murine chimeric antibody (antibody, human IgG1, kappa, V domains shown)
VH: B19 VH with L20V, V37M, F48I, I51N, D52E, G57R, T58S, N61D, R65K, A66G
VL: B18 VL with S28G, S32N, S71G
notes: Chimeric

- OD450 nm [1]: 2.18 OD450 nm
- OD450 nm [2]: 2.43 OD450 nm
- OD450 nm [3]: 1.53 OD450 nm
- OD450 nm [4]: 2.63 OD450 nm
- OD450 nm [5]: 0.35 OD450 nm
- OD450 nm [6]: 0.09 OD450 nm
- OD450 nm [7]: 0.05 OD450 nm
B21: F2.152.3 (antibody, human IgG1, kappa, V domains shown)
VH: EVQLQQSGPELVKPGASVKMSCKASGYTFTDYYMTWVKQSHGKSLEWIGRVNPRNGDTTYNQKFEGRATLTLDKSLSTAFMQLNSLTSEDSAVYYCINSKGHFDYWGQGTTLTVSS
VL: DVLMTQTPLSLPVSLGDQASISCRSSQSIVHSNGNTYLEWFLQKPGQSPKSLIYKVSNRFSGVPDRFSGSGSGTDFTLKISRVEAEDLGVYYCFQGSHVPPTFGAGTKLELKR
notes: as for B1

- OD450 nm [1]: 1.21 OD450 nm
- OD450 nm [2]: 2.88 OD450 nm
- OD450 nm [3]: 0.19 OD450 nm
- OD450 nm [4]: 2.94 OD450 nm
- OD450 nm [5]: 0.05 OD450 nm
- OD450 nm [6]: 0.05 OD450 nm
- OD450 nm [7]: 0.05 OD450 nm
B22: F3.81.19 (antibody, human IgG1, kappa, V domains shown)
VH: B19 VH with F48I, A50T, G57N, R65K, A66G, F99P, F102L, A103T
VL: B21 VL with M4L, I29F, N35D, E39Q, F41Y, S51L, P101Y, A105S, L111I
notes: as for B1

- OD450 nm [1]: 2.57 OD450 nm
- OD450 nm [2]: 2.83 OD450 nm
- OD450 nm [3]: 1.01 OD450 nm
- OD450 nm [4]: 3.22 OD450 nm
- OD450 nm [5]: 0.19 OD450 nm
- OD450 nm [6]: 0.06 OD450 nm
- OD450 nm [7]: 0.05 OD450 nm
B23: F3.38.7 (antibody, human IgG1, kappa, V domains shown)
VH: QVQLQQSGAELVRPGASVKLSCKASGYTFTDYEIHWVKQTPVLGLEWIGAIDPKTGNTAYNQKFMGKATLTADKSSTTAYMDLRSLTSEDSAVYYCTRYFSFAYWGQGTLVTVSA
VL: B21 VL with S28T, I29F, E39Q, F41Y, S51L, P101Y, A105S, L111I
notes: as for B1

- binding result [8]: no binding (tested: 100 nM)
B24: F3.81.19 human-murine chimeric antibody (antibody, human IgG1, kappa, V domains shown)
VH: B19 VH with F48I, A50T, G57N, R65K, A66G, F99P, F102L, A103T
VL: B21 VL with M4L, I29F, N35D, E39Q, F41Y, S51L, P101Y, A105S, L111I
notes: Chimeric

- binding result [8]: no binding (tested: 100 nM)
B25: F2.154.1 human-murine chimeric antibody (antibody, human IgG1, kappa, V domains shown)
VH: B19 VH with T28R, F48I, A50T, G57N, N61T, R65M, A66D, F99G, A103T, V111A
VL: B17 VL with I2V, R32S, E39Q, L53I, Y54F, I90V, F99V, S105T
notes: Chimeric

- binding result [8]: no binding (tested: 100 nM)
B26: F3.38.7 human-murine chimeric antibody (antibody, human IgG1, kappa, V domains shown)
VH: B23 VH
VL: B21 VL with S28T, I29F, E39Q, F41Y, S51L, P101Y, A105S, L111I
notes: Chimeric
